Test results taken from patent publication US10866245B2, “Methods for dye selection for protein melt temperature determinations” (LIFE TECHNOLOGIES CORPORATION, priority 2013, dated 2020).

Key:
T4 DNA ligase = target: T1, T4 DNA ligase (Enterobacteria phage T4, UniProt P00970); assay: Protein Thermal Shift assay of T4 DNA ligase with and without ligand ATP (SYPRO Orange); type: binding; conditions: derivative curve FIG. 2B
T1 sequence (P00970 1-487): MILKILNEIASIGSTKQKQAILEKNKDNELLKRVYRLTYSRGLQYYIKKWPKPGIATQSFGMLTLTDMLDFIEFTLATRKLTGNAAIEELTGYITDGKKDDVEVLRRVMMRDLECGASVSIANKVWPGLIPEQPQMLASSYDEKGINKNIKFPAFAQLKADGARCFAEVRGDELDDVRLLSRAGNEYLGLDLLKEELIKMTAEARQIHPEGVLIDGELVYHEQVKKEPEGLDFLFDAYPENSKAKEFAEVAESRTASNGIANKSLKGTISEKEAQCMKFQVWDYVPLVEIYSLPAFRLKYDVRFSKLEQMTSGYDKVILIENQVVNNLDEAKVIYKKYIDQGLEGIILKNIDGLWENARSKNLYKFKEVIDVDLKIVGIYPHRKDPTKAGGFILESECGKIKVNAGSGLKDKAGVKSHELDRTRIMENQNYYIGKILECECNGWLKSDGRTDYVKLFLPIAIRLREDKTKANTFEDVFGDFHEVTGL
Experimental: (§1) Applied Biosystems® Real-time PCR Systems instruments, as described above, are used to plot the fluorescence data throughout the thermal melt, generating a fluorescence profile specific to the protein of interest within the test buffer environment or in the presence of a test ligand. A MATLAB based TmTool™ which utilizes the Boltzmann equation to calculate the Tm of the protein from the fluorescence melt plot is used to process the raw data recorded with the instrument.
T4 DNA ligase is prepared in phosphate buffered saline (PBS; 137 mM NaCl, 10 mM Phosphate, 2.7 mM KCl, pH 7.4) and 5% glycerol at a concentration of 3 mg/ml of protein. T4 DNA ligase samples are prepared using SYPRO® Orange with and without ligand (ATP at 10 mM concentration). SYPRO® Orange dye solution is prepared as a 1000× stock from a 5000× stock solution in DMSO, then diluted to a 10× stock solution using 100 mM Potassium phosphate buffer. The SYPRO® Orange-protein reaction mixture is prepared by using 1 μl of the protein solution, 2 μl of the 10× dye solution, and 17 μl of the PTS buffer. Quadruplicate samples for each protein-dye mixture are run on a ViiA™ 7 qPCR instrument (Life Technologies, Inc.) and analysis using Protein Thermal Shift™ software (Life Technologies Inc.). […]

[1] = Protein Thermal Shift buffer and salt screen of RecA (SYPRO Orange, Boltzmann fit); type: physicochemical
Source text: as §1
FIGS. 3A through 3C illustrate the method of calculating Tm from a typical PTS. The MATLAB based TmTool™ calculates the Tm of the protein from the shape of the fluorescence plot in FIG. 3a. The thermo-stability of RecA in different buffer and salt conditions is compared and the region of interest is fitted to the Boltzmann equation. RecA is prepared in phosphate buffered saline (PBS; 137 mM NaCl, 10 mM Phosphate, 2.7 mM KCl, pH 7.4) and 5% glycerol at a concentration of 3 mg/ml of protein. SYPRO® Orange dye solution is prepared as a 1000× stock from a 5000× stock solution in DMSO, then diluted to a 10× stock solution with PTS buffer.
The SYPRO® Orange-protein Protein Thermal Shift Assay reaction mixture is prepared by using 1 μl of the protein solution, 2 μl of the 10× dye solution, and 17 μl of each of experimental buffer solutions A1-A4, B1-B4, C1-C4, and D1-D4. Samples for each protein-dye mixture are run on a ViiA™ 7 qPCR instrument (Life Technologies, Inc.) and analysis using Protein Thermal Shift™ software (Life Technologies Inc.). The run time conditions are: a temperature hold at 20° C. for one minute followed by a thermal ramp of 0.05° C. with continuous data collection to 95° C., followed by a 1 minute hold at the final temperature.
The Applied Biosystems' TmTool™ calculator provides the protein Tm calculated via Boltzmann curve-fitting. […] Thus, the methods can be used to identify salt and pH concentrations best suited for stability of a protein as well as conditions for protein storage, crystallography, etc. The Boltzmann equation used is: […]

[2] = Protein Thermal Shift of RecA with dye formulation 7 versus SYPRO Orange alone; type: physicochemical
Experimental: The assays are run on a ViiA™7 qPCR instrument (Life Technologies, Inc.) and analyzed using Protein Thermal Shift™ software (Life Technologies Inc.). The run time conditions are: a temperature hold at 20° C. for one minute followed by a thermal ramp of 0.05° C. with continuous data collection to 95° C., followed by a 1 minute hold at the final temperature.
PTS is performed on RecA, using conditions as is discussed in Example 6. 1.4 μl of each of the 100× dye formulations is added according to Table 9. PTS reproducibility is improved with dye formulation 7 (SYPRO® Orange, SYPRO® Red and SYPRO® Tangerine) (FIGS. 13A and 13B) using an X5-M5 filter relative to SYPRO® Orange alone using an X4-M4 filter. In FIG. 13A, using the mixture of dyes (formulation 7), the two melt curves shown are for RecA in E3 and C3 buffer, respectively.

Human Decorin Protein = target: T2, Human Decorin Protein (Homo sapiens, UniProt P07585); assay: Protein Thermal Shift of human Decorin, anti-Decorin antibody and their mixture; type: binding; conditions: isolated protein or isolated antibody
T2 construct: purchased R&D Systems 143-DE
Experimental: T4 DNA ligase is prepared in phosphate buffered saline (PBS; 137 mM NaCl, 10 mM Phosphate, 2.7 mM KCl, pH 7.4) and 5% glycerol at a concentration of 3 mg/ml of protein. T4 DNA ligase samples are prepared using SYPRO® Orange with and without ligand (ATP at 10 mM concentration). SYPRO® Orange dye solution is prepared as a 1000× stock from a 5000× stock solution in DMSO, then diluted to a 10× stock solution using 100 mM Potassium phosphate buffer. The SYPRO® Orange-protein reaction mixture is prepared by using 1 μl of the protein solution, 2 μl of the 10× dye solution, and 17 μl of the PTS buffer. Quadruplicate samples for each protein-dye mixture are run on a ViiA™ 7 qPCR instrument (Life Technologies, Inc.) and analysis using Protein Thermal Shift™ software (Life Technologies Inc.). The run time conditions are: a temperature hold at 20° C. for one minute followed by a thermal ramp of 0.05° C. with continuous data collection to 95° C., followed by a 1 minute hold at the final temperature.
An assay was performed to identify whether PTS can be used to analyze binding of an antibody to its ligand. The method is performed using buffer and reaction conditions as described in EXAMPLE 1.

Nc1ncnc2c1ncn2[C@@H]1O[C@H](COP(=O)(O)OP(=O)(O)OP(=O)(O)O)[C@@H](O)[C@H]1O [ATP, reference compound]
Tm of complexed T4 DNA Ligase (T4 DNA ligase; with ligand ATP at 10 mM): about 48 °C

RecA: RecA DNA repair protein
Tm in ° C. ([1]; Buffer A1: 100 mM Sodium Citrate, pH 5.5, 0 mM NaCl): 42.2 °C
Tm in ° C. ([1]; Buffer A2: 100 mM Sodium Citrate, pH 5.5, 50 mM NaCl): 41.7 °C
Tm in ° C. ([1]; Buffer A3: 100 mM Sodium Citrate, pH 5.5, 100 mM NaCl): 42.1 °C
Tm in ° C. ([1]; Buffer A4: 100 mM Sodium Citrate, pH 5.5, 150 mM NaCl): 41.6 °C
Tm in ° C. ([1]; Buffer B1: 100 mM Potassium Phosphate, pH 6.0, 0 mM NaCl): 41.8 °C
Tm in ° C. ([1]; Buffer B2: 100 mM Potassium Phosphate, pH 6.0, 50 mM NaCl): 41.2 °C
Tm in ° C. ([1]; Buffer B3: 100 mM Potassium Phosphate, pH 6.0, 100 mM NaCl): 41.2 °C
Tm in ° C. ([1]; Buffer B4: 100 mM Potassium Phosphate, pH 6.0, 150 mM NaCl): 41.1 °C
Tm in ° C. ([1]; Buffer C1: 100 mM Potassium Phosphate, pH 7.0, 0 mM NaCl): 46.8 °C
Tm in ° C. ([1]; Buffer C2: 100 mM Potassium Phosphate, pH 7.0, 50 mM NaCl): 46.6 °C
Tm in ° C. ([1]; Buffer C3: 100 mM Potassium Phosphate, pH 7.0, 100 mM NaCl): 46 °C
Tm in ° C. ([1]; Buffer C4: 100 mM Potassium Phosphate, pH 7.0, 150 mM NaCl): 45.7 °C
Tm ([2]; Buffer C3, SYPRO Orange alone, X4-M4 filter): 53.3 °C
Tm ([2]; Buffer C3, dye formulation 7, X5-M5 filter): 49.5 °C
Tm ([2]; Buffer E3, SYPRO Orange alone, X4-M4 filter): 48.1 °C
Tm ([2]; Buffer E3, dye formulation 7, X5-M5 filter): 45.7 °C

B1: Human Decorin: Human Decorin Protein, P/N 143-DE (R&D Systems) (protein, UniProt P07585 31-359, looked up)
Decorin: DEASGIGPEVPDDRDFEPSLGPVCPFRCQCHLRVVQCSDLGLDKVPKDLPPDTTLLDLQNNKITEIKDGDFKNLKNLHALILVNNKISKVSPGAFTPLVKLERLYLSKNQLKELPEKMPKTLQELRAHENEITKVRKVTFNGLNQMIVIELGTNPLKSSGIENGAFQGMKKLSYIRIADTNITSIPQGLPPSLTELHLDGNKISRVDAASLKGLNNLAKLGLSFNSISAVDNGSLANTPHLRELHLDNNKLTRVPGGLAEHKYIQVVYLHNNNISVVGSSDFCPPGHNTKKASYSGVSLFSNPVQYWEIQPSTFRCVYVRSAIQLGNYK
Tm (Human Decorin Protein): 47.7 °C

B2: T4 DNA Ligase: T4 DNA ligase enzyme prepared in PBS and 5% glycerol at 3 mg/ml (protein, UniProt P00970 1-487, looked up)
DNA ligase: MILKILNEIASIGSTKQKQAILEKNKDNELLKRVYRLTYSRGLQYYIKKWPKPGIATQSFGMLTLTDMLDFIEFTLATRKLTGNAAIEELTGYITDGKKDDVEVLRRVMMRDLECGASVSIANKVWPGLIPEQPQMLASSYDEKGINKNIKFPAFAQLKADGARCFAEVRGDELDDVRLLSRAGNEYLGLDLLKEELIKMTAEARQIHPEGVLIDGELVYHEQVKKEPEGLDFLFDAYPENSKAKEFAEVAESRTASNGIANKSLKGTISEKEAQCMKFQVWDYVPLVEIYSLPAFRLKYDVRFSKLEQMTSGYDKVILIENQVVNNLDEAKVIYKKYIDQGLEGIILKNIDGLWENARSKNLYKFKEVIDVDLKIVGIYPHRKDPTKAGGFILESECGKIKVNAGSGLKDKAGVKSHELDRTRIMENQNYYIGKILECECNGWLKSDGRTDYVKLFLPIAIRLREDKTKANTFEDVFGDFHEVTGL
Tm of uncomplexed T4 DNA Ligase (T4 DNA ligase; no ligand): about 42 °C
